Reference: the supplement of paper PMC10567573
± gives the standard deviation.

Assay: protein stability index of a GFP-peptide fusion (GPS, HEK-293T) (PSI 1-6); higher = more stable
Conditions: c terminus: a fixed tail appended
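Further: 24-mer peptide tiles fused after GFP, lentivirally expressed, FACS-sorted into six equal bins by GFP/DsRed ratio, decoded by Illumina sequencing, PSI is the read-weighted mean bin number.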

Sequence | protein stability index (treatment: DMSO) | protein stability index (treatment: MLN4924 1 uM, 8 h)
DREDSPERCSDSDEEKKARRGRSP [CLINT1] | 5.59 ± 0.3 | 5.34 ± 0.25
MADADEGFGLAHTPLEPDAKDLPC [TBX5] | 5.24 ± 0.27 | 5.13 ± 0.22
LITIATFQIAANLSMERYALVFGV [SLC19A2] | 3.02 ± 0.15 | 3.12 ± 0.59
LCCAFSTDGSVLAAGTHDGSVYFW [WSB1] | 2.78 ± 0.78 | 2.45 ± 0.78
LKTSKMALSPSATAKRINRTSLSS [CDC14A] | 3.71 ± 0.26 | 3.54 ± 0.25
RKKQHICDECGKHFSQGSALILHQ [ZNF24] | 3.53 ± 0.21 | 3.62 ± 0.41
TEPDYKSKDWVFLNYTYKRFEGLT [STK38L] | 1.92 ± 0.19 | 2.39 ± 0.59
EALCEEDLLLWIQKHTEVETVDLV [DENND6A] | 3.37 ± 0.25 | 3.08 ± 0.27
PSLEAGNPAPAAPCPLGEPKTQAC [MYCL] | 5.26 ± 0.14 | 5.32 ± 0.11
DALPGQSKRLAVPCKLEKMRILAH [TLE6] | 2.39 ± 0.18 | 2.4 ± 0.24
ILTLTMISLFFLIIYMGSFMLMLL [CDS1] | 2.4 ± 0.65 | 2.35 ± 0.39
GEINVEMDAAPGVDLSRILNEMRD [KRT17] | 4.03 ± 0.22 | 3.99 ± 0.14
RNVRERIAKNLVEKGILTTEKQNF [GOLPH3L] | 3.73 ± 0.22 | 3.82 ± 0.2
ETVLALVNCISPLKYFSDFRPYFT [DENND6A] | 2.54 ± 0.48 | 3.21 ± 0.83
VLPPRQPSALVPSVTEYRLDGHTI [MYBL2] | 3.35 ± 0.35 | 3.41 ± 0.24
DLGASSLHVNGESLEMDSDEDDSE [EHMT1] | 5.52 ± 0.15 | 5.62 ± 0.14
SSRLPQPSGAGKTVVGVPSGKVSS [ZC2HC1A] | 4.62 ± 0.13 | 4.81 ± 0.12
RRMAAEATEWQKAGAPPPSGSAVS [SRPK2] | 4.59 ± 0.42 | 4.68 ± 0.29
LHSLDDFYIGKYFGGVLEYFMIQA [RHOBTB3] | 2.78 ± 0.37 | 2.8 ± 0.63
SGSESDHTTRSSLRGPRERAPSER [DVL3] | 5.33 ± 0.32 | 5.39 ± 0.24
FANLIKEFVIIDCRYPYEYEGGHI [CDC25A] | 2.98 ± 0.51 | 2.76 ± 1.1
HTFNAHAATDITGFGILGHSQNLA [SEPHS2] | 3 ± 0.35 | 3.04 ± 0.24

Sequence | protein stability index (treatment: DMSO) | protein stability index (treatment: MLN4924 1 uM, 8 h)
LLGEETPMAADEGSAEKQAGEAHM [EHMT1] | 5.66 ± 0.31 | 5.57 ± 0.38
AEFIESGQYRANEGTSSIVMEIQK [TAF7L] | 4.23 ± 0.24 | 4.45 ± 0.32
VQQQKLAEERRRQNLQEEKERKLE [FAF2] | 4.87 ± 0.15 | 5.19 ± 0.43
HMESRMVTETEETQEKKAESKEPI [SDE2] | 5.48 ± 0.17 | 5.46 ± 0.47
PRRKKLKSTSKYIYQTLFLNGENS [GMCL1] | 2.69 ± 0.17 | 2.79 ± 0.16
QGLRPRTVSSPIPYTPSPSSSRPI [CCDC6] | 4.64 ± 0.22 | 4.7 ± 0.16
HHPENGEEAVTVLEDLESELDDPG [ZNF24] | 5.49 ± 0.22 | 5.65 ± 0.16
DNMYRLAHFSPFLYYQSQELPNGS [PDZK1] | 2.12 ± 0.22 | 2.33 ± 0.23
ISRDRLSSYYKFKLTREVLSLFVQ [ZER1] | 2.11 ± 0.52 | 2.13 ± 0.29
MEKYEKLAKTGEGSYGVVFKCRNK [CDKL4] | 3.78 ± 0.19 | 3.67 ± 0.26
PKEPAPPNGSAAEPPTEAASREEN [PALM] | 5.57 ± 0.25 | 5.37 ± 0.43
AEGDSEGLSQGLVDREKGLSAEPG [CHGA] | 5.49 ± 0.23 | 5.49 ± 0.4
IRKEMKLLEQAGSLKGSLSVEEQL [CRYL1] | 4.54 ± 0.53 | 4.372 ± 0.012
VCGQNWGIVEAMVVCRQLGLGFAS [LOXL2] | 3.33 ± 0.11 | 3.18 ± 2
FSAHYDAVEAELKSSTVGLVTLND [FAM50A] | 3.86 ± 0.16 | 3.94 ± 0.32
SASEPQPASQAASSSSASADLLAG [SNAP91] | 5.51 ± 0.17 | 5.41 ± 0.19
LGTPTSSTPRPSITPTKKIELDRT [C2CD2L] | 4.94 ± 0.18 | 4.88 ± 0.24
RYSTNLSNHVDDFTTFRGTELSFL [EDNRA] | 2.58 ± 0.17 | 2.54 ± 0.21
GLQNCVYPWDENHCKEKRKTSLLD [NETO1] | 3.24 ± 0.25 | 3.52 ± 0.28
RMEYVHSKNLIYRDVKPENFLIGR [CSNK1G1] | 2.45 ± 0.16 | 2.79 ± 0.31
MGWKKACDELELHQRFLREGRFWK [ZMYND11] | 2.52 ± 0.19 | 2.99 ± 0.18
HEKERPEHKSLESLADGGSASPIK [FANCE] | 5.49 ± 0.21 | 5.31 ± 0.25

Sequence | protein stability index (treatment: DMSO) | protein stability index (treatment: MLN4924 1 uM, 8 h)
ISKKFGDMSYSIRHSISMPAMRNS [TPD52L1] | 2.51 ± 0.41 | 2.65 ± 0.52
LSPAGSSQEAADTPDTRHPCSLGS [YJU2B] | 5.24 ± 0.21 | 5.3 ± 0.23
CDELELHQRFLREGRFWKSKNEDR [ZMYND11] | 4.29 ± 0.17 | 4.31 ± 0.36
MVRSVAWAGFMVLLMIPWGSAAKL [CHIT1] | 3.13 ± 0.57 | 2.87 ± 0.2
VRLAARQEDAPMIEPLVPEEKMET [EPB41L3] | 4.9 ± 0.16 | 5.17 ± 0.24
KAFYKRYRLTEHERAHKGEKPYGC [ZNF649] | 3.62 ± 0.93 | 3.16 ± 0.57
RRLYHLEGFQRCDVARQLGKNNEF [PSD2] | 2.61 ± 0.43 | 2.8 ± 0.16
FIYYENMLLGVPRLRQLKVRNDSC [PKD2L1] | 2.33 ± 0.26 | 2.19 ± 0.3
KGNRTARIIDKPRVIEVLPRGATA [SEPHS2] | 3.64 ± 0.22 | 3.77 ± 0.2
SCDDLMGGGGLHSVGTYIIDLLTF [GFOD1] | 2.75 ± 0.72 | 2.41 ± 0.29
SVSLDRCIKIWDVTSQATLLTITK [WDR88] | 2.43 ± 0.2 | 2.43 ± 0.21
VRKKERGREEKCVWKHGITPPLKN [TAF7L] | 3.85 ± 0.41 | 3.83 ± 0.3
GLPFILRPTSCWQLDWDELETNQQ [M1AP] | 2.62 ± 0.056 | 2.67 ± 0.24
MRRQEPLPPPPPPSRGGNQLPRPP [WAS] | 4.8 ± 0.18 | 4.89 ± 0.17
NLLLTYLIVTSLLLLPGLNQHGII [ARL6IP1] | 3.32 ± 0.47 | 3.25 ± 0.13
SEDAVGGATLGQTTSEEAVGGATL [HDAC6] | 5.54 ± 0.15 | 5.18 ± 0.4
MTDGILGKAATMEIPIHGNGEARQ [ARFIP2] | 4.58 ± 0.16 | 4.57 ± 0.13
GGWFCEGSFNGSEKETMQFLNDRL [KRT36] | 3.27 ± 0.23 | 3.17 ± 0.41
QYPAGTQGEQLEVPERLLVVLDME [SPSB2] | 3.82 ± 0.45 | 3.69 ± 0.19
IPKVELQISIYGVKILEPKTKEVQ [GULP1] | 2.46 ± 0.51 | 1.98 ± 0.23
LEKDFSIYGGELGPMMKLKRHFVA [ACSBG2] | 2.23 ± 0.2 | 2.26 ± 0.53
